Results on three molecules are retold here after paper PMC11456556.

The target in series [1] is T1, alpha-synuclein monomer (human, UniProt P37840 1-140). Nature of the series: DNase I footprinting.
Series [2] addresses beta-synuclein (UniProt Q16143 1-134). Nature of the series: MST.
The target in series [3] is gamma-synuclein (UniProt O76070 1-127). Put plainly: MST.
The target in series [4] is T1, alpha-synuclein monomer. Put plainly: EIS.

Chain of gamma-synuclein (O76070 whole entry): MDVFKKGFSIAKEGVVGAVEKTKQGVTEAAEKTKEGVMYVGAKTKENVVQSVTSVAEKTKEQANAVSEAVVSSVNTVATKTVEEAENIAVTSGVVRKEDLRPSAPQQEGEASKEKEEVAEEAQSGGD
Chain of beta-synuclein (Q16143 whole entry): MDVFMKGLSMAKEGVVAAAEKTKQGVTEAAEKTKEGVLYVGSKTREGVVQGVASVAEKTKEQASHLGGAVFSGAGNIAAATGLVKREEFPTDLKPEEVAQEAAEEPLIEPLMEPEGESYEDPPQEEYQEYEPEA

B1: a-syn-1 (5'-fluorescein) (ssDNA)
DNA: ATAGTCCCATCATTCATTGTAAGGAAACGCTACGGGGTGGGTACGGCAAGATATTAGCAAGTGTCA
The term Kd denotes a measure of binding affinity in units of concentration. Read a low Kd as tighter binding. As to B1, the Kd in series [1] amounted to 28 ± 14 nM.

B2: a-syn-1 (5'-Cy5) (ssDNA)
DNA: ATAGTCCCATCATTCATTGTAAGGAAACGCTACGGGGTGGGTACGGCAAGATATTAGCAAGTGTCA
With B2, the binding result in series [2] and in series [3] was “no binding” in each case.

B3: a-syn-1 (thiol, on gold electrode) (ssDNA)
DNA: ATAGTCCCATCATTCATTGTAAGGAAACGCTACGGGGTGGGTACGGCAAGATATTAGCAAGTGTCA
modifications: thiol (end not stated), immobilized on gold
The molecule B3 came in with a Kd in series [4] of 70 ± 3 nM.
